Reference: the Human Domainome abundance scans (Beltran et al. 2025)
± gives the uncertainty stated by the source.

B1: Myocardin-related transcription factor A, residues 341 to 383; numbered along this chain, Q969V6 (parent)
chain: GALPANLDDMKVAELKQELKLRSLPVSGTKTELIERLRAYQDQ

Variants of: B1
Assay: abundance fitness (aPCA) (normalised: wild type 0, dead -1); higher = more abundant; growth selection in yeast, the domain comes from the species named
Conditions: Homo sapiens

| Variant | abundance fitness |
| --- | --- |
| GALPANLDDMKVAELKQELKLRSLPVSGTKTEMIERLRAYQDQ [L33M] | 0.046 ± 0.32 |
| GALPANLDDMKVAELKQELKLRSLPVSGTKTETIERLRAYQDQ [L33T] | -0.283 ± 0.098 |
| GALPANLDDMKVAELKQELKLRSLPVSGTKTEQIERLRAYQDQ [L33Q] | -0.128 ± 0.091 |
| GALPANLDDMKVAELKQELKLRSLPVSGTKTEGIERLRAYQDQ [L33G] | -0.224 ± 0.082 |
| GALPANLDDMKVAELKQELKLRSLPVSGTKTEVIERLRAYQDQ [L33V] | -0.249 ± 0.081 |
| GALPANLDDMKVAELKQELKLRSLPVSGTKTENIERLRAYQDQ [L33N] | 0.592 ± 0.39 |
| GALPANLDDMKVAELKQELKLRSLPVSGTKTEKIERLRAYQDQ [L33K] | -0.315 ± 0.095 |
| GALPANLDDMKVAELKQELKLRSLPVSGTKTEAIERLRAYQDQ [L33A] | -0.261 ± 0.26 |
| GALPANLDDMKVAELKQELKLRSLPVSGTKTERIERLRAYQDQ [L33R] | -0.617 ± 0.07 |
| GALPANLDDMKVAELKQELKLRSLPVSGTKTEPIERLRAYQDQ [L33P] | -0.403 ± 0.17 |
| GALPANLDDMKVAELKQELKLRSLPVSGTKTESIERLRAYQDQ [L33S] | -0.067 ± 0.094 |
| GALPANLDDMKVAELKQELKLRSLPVSGTVTELIERLRAYQDQ [K30V] | -0.509 ± 0.09 |
| GALPANLDDMKVAELKQELKLRSLPVSGTDTELIERLRAYQDQ [K30D] | -0.478 ± 0.084 |
| GALPANLDDMKVAELKQELKLRSLPVSGTATELIERLRAYQDQ [K30A] | -0.403 ± 0.088 |
| GALPANLDDMKVAELKQELKLRSLPVSGTPTELIERLRAYQDQ [K30P] | -0.242 ± 0.17 |
| GALPANLDDMKVAELKQELKLRSLPVSGTHTELIERLRAYQDQ [K30H] | -0.217 ± 0.086 |
| GALPANLDDMKVAELKQELKLRSLPVSGTQTELIERLRAYQDQ [K30Q] | -0.092 ± 0.098 |
| GALPANLDDMKVAELKQELKLRSLPVSGTITELIERLRAYQDQ [K30I] | -0.158 ± 0.15 |
| GALPANLDDMKVAELKQELKLRSLPVSGTNTELIERLRAYQDQ [K30N] | -0.343 ± 0.11 |
| GALPANLDDMKVAELKQELKLRSLPVSGTSTELIERLRAYQDQ [K30S] | -0.231 ± 0.08 |

| Variant | abundance fitness |
| --- | --- |
| GALPANLDDMKVAELKQELKLRSLPVSGTMTELIERLRAYQDQ [K30M] | -0.332 ± 0.21 |
| GALPANLDDMKVAELKQELKLRSLPVSGTTTELIERLRAYQDQ [K30T] | -0.091 ± 0.092 |
| GALPANLDDMKVAELKQELKLRSLPVSGTWTELIERLRAYQDQ [K30W] | -0.6 ± 0.081 |
| GALPANLDDMKVAELKQELKLRSLPVSGTRTELIERLRAYQDQ [K30R] | 0.024 ± 0.07 |
| GALPANLDDMKVAELKQELKLRSLPVSGTETELIERLRAYQDQ [K30E] | -0.269 ± 0.093 |
| GALPANLDDMKVAELKQELKLRSLPVSGTFTELIERLRAYQDQ [K30F] | -0.463 ± 0.14 |
| GALPANLDDMKVAELKQELKLRSLPVSGTGTELIERLRAYQDQ [K30G] | -0.494 ± 0.07 |
| GALPANLDDMKVAELKQELKLRSLPVSGTKTELIKRLRAYQDQ [E35K] | 0.035 ± 0.1 |
| GALPANLDDMKVAELKQELKLRSLPVSGTKTELIPRLRAYQDQ [E35P] | -0.505 ± 0.1 |
| GALPANLDDMKVAELKQELKLRSLPVSGTKTELIGRLRAYQDQ [E35G] | 0.041 ± 0.08 |
| GALPANLDDMKVAELKQELKLRSLPVSGTKTELIYRLRAYQDQ [E35Y] | 0.166 ± 0.18 |
| GALPANLDDMKVAELKQELKLRSLPVSGTKTELILRLRAYQDQ [E35L] | 0.026 ± 0.16 |
| GALPANLDDMKVAELKQELKLRSLPVSGTKTELIWRLRAYQDQ [E35W] | -0.19 ± 0.11 |
| GALPANLDDMKVAELKQELKLRSLPVSGTKTELITRLRAYQDQ [E35T] | -0.173 ± 0.14 |
| GALPANLDDMKVAELKQELKLRSLPVSGTKTELISRLRAYQDQ [E35S] | 0.109 ± 0.091 |
| GALPANLDDMKVAELKQELKLRSLPVSGTKTELIQRLRAYQDQ [E35Q] | 0.398 ± 0.12 |
| GALPANLDDMKVAELKQELKLRSLPVSGTKTELIVRLRAYQDQ [E35V] | -0.171 ± 0.078 |
| GALPANLDDMKVAELKQELKLRSLPVSGTKTELIRRLRAYQDQ [E35R] | -0.047 ± 0.058 |
| GALPANLDDMKVAELKQELKLRSLPVSGTKTELIFRLRAYQDQ [E35F] | -0.242 ± 0.083 |
| GALPANLDDMKVAELKQELKLRSLPVSGTKTELIIRLRAYQDQ [E35I] | -0.174 ± 0.16 |

| Variant | abundance fitness |
| --- | --- |
| GALPANLDDMKVAELKQELKLRSLPVSGTKTELIARLRAYQDQ [E35A] | 0.23 ± 0.06 |
| GALPANLDDMKVAELKQELKLRSLPVSGTKTELIECLRAYQDQ [R36C] | -0.128 ± 0.12 |
| GALPANLDDMKVAELKQELKLRSLPVSGTKTELIETLRAYQDQ [R36T] | -0.113 ± 0.082 |
| GALPANLDDMKVAELKQELKLRSLPVSGTKTELIEALRAYQDQ [R36A] | -0.128 ± 0.066 |
| GALPANLDDMKVAELKQELKLRSLPVSGTKTELIEELRAYQDQ [R36E] | -0.529 ± 0.12 |
| GALPANLDDMKVAELKQELKLRSLPVSGTKTELIEGLRAYQDQ [R36G] | -0.188 ± 0.065 |
| GALPANLDDMKVAELKQELKLRSLPVSGTKTELIEILRAYQDQ [R36I] | -0.728 ± 0.27 |
| GALPANLDDMKVAELKQELKLRSLPVSGTKTELIEPLRAYQDQ [R36P] | -0.066 ± 0.1 |
| GALPANLDDMKVAELKQELKLRSLPVSGTKTELIEQLRAYQDQ [R36Q] | -0.201 ± 0.072 |
| GALPANLDDMKVAELKQELKLRSLPVSGTKTELIEVLRAYQDQ [R36V] | -0.339 ± 0.061 |
| GALPANLDDMKVAELKQELKLRSLPVSGTKTELIEWLRAYQDQ [R36W] | -0.73 ± 0.08 |
| GALPANLDDMKVAELKQELKLRSLPVSGTKTELIELLRAYQDQ [R36L] | -0.416 ± 0.086 |
| GALPANLDDMKVAELKQELKLRSLPVSGTKTELIESLRAYQDQ [R36S] | -0.291 ± 0.075 |
| GALPANLDDMKVAELKQELKLRSLPVSGTKTELIENLRAYQDQ [R36N] | -0.356 ± 0.12 |
| GALPANLDDMKVAELKQELKLRSLPVSGTKTELIEMLRAYQDQ [R36M] | -0.395 ± 0.21 |
| GALPANLDDMKVAELKQELKLRSLPVSGTKTELIEKLRAYQDQ [R36K] | -0.234 ± 0.1 |
| GALPANLDDMKVAELKQELKLRSLPVSGTKTKLIERLRAYQDQ [E32K] | -0.198 ± 0.097 |
| GALPANLDDMKVAELKQELKLRSLPVSGTKTCLIERLRAYQDQ [E32C] | -0.17 ± 0.072 |
| GALPANLDDMKVAELKQELKLRSLPVSGTKTTLIERLRAYQDQ [E32T] | -0.143 ± 0.12 |
